The IC50 is the point on the concentration scale where inhibition reaches its midpoint.

This note sets out measurements from patent US20070173444A1 (AFFYMAX, published 2007).

Square brackets hold non-standard residues; d marks the D form. Ends that are not written are not given here. Ahx = NCCCCCC(=O)O

Test [1] concerns the target T1, native IL-5R a/β complex on TF-1 cells (human, UniProt Q01344 21-420; P32927 17-897).
T1 sequence (looked up) 1: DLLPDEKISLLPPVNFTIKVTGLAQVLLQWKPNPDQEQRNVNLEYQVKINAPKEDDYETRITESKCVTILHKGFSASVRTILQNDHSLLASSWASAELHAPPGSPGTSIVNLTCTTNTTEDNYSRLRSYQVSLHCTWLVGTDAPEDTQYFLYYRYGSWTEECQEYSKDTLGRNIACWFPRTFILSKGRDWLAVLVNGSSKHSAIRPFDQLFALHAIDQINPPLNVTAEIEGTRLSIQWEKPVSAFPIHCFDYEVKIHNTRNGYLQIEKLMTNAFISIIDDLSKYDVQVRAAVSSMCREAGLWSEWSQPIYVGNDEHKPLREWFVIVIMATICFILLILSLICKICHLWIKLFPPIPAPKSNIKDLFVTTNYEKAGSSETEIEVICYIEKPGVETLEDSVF
T1 sequence (looked up) 2: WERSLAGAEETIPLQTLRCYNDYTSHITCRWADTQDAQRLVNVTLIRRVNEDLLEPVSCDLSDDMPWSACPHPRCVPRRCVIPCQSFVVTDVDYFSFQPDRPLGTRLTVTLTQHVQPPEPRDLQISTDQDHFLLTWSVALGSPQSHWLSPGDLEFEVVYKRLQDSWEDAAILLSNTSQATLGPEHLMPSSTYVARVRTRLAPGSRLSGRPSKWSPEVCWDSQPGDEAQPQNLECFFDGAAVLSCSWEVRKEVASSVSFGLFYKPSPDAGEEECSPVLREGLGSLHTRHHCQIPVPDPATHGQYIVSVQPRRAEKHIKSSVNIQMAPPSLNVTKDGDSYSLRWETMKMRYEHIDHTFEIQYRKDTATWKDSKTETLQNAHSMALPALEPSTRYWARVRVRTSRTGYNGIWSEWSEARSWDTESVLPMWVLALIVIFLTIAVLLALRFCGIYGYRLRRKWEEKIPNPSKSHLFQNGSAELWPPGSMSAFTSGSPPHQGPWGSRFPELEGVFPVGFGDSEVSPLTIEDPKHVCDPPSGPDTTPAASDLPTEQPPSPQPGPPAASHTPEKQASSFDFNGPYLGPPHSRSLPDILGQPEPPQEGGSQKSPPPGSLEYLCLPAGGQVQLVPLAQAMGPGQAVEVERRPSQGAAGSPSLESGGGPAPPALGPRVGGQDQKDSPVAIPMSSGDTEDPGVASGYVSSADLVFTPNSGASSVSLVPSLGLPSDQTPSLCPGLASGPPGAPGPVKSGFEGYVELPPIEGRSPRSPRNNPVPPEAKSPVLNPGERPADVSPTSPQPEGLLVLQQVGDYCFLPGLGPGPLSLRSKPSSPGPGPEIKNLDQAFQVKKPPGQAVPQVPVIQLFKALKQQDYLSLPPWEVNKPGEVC
As to the kind of experiment: cell-based or functional assay.

The target of test [2] is T2, IL-5RaECD (the extracellular domain (ECD) of the human IL-5 receptor a chain) (human, UniProt Q01344 21-342, extensively glycosylated).
T2 construct: extracellular domain; also called IL-5RαECD; soluble IL-5Ra
T2 sequence (Q01344 21-342, looked up): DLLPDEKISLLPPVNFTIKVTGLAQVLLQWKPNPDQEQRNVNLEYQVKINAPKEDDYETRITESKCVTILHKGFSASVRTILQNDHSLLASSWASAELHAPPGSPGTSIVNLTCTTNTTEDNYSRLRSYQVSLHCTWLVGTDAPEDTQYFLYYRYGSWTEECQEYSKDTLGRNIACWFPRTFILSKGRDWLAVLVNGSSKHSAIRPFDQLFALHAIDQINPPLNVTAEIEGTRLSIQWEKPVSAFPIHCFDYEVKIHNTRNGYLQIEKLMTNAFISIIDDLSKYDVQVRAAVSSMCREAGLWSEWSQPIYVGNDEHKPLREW
As to the kind of experiment: scintillation proximity competition assay, 20 pM [125I] IL-5, soluble IL-5Ra on beads; dimer of the printed monomer. How it is done: Binding affinities of synthetic peptides for IL-5Ra were measured in a scintillation proximity assay (SPA) using radio-iodinated IL-5. Streptavidin coated SPA beads (Amersham) were suspended in IL-5 binding buffer (phosphate buffered saline, 0.1% bovine serum albumin, 0.2% NaN3) at 2 mg beads/ml of buffer. Biotinylated mAb 179 was adsorbed onto the beads at a ratio of 2 ig Ab/mg beads by incubating the beads and antibody with agitation for at least 2 h. at 4. The beads were pelleted at 2500 rpm and resuspended at 2 mg/ml in binding buffer. Soluble IL-5Ra was then adsorbed onto the beads by diluting a solution of soluble receptor harvest 1:500 into the bead suspension and incubating with agitation for 2 hr at 4. The beads were again pelleted at 2500 rpm and resuspended at 2 mg/ml in binding buffer. Competition binding assays were carried out in 100p1 reactions in white polystyrene microtiter plates. These reactions contained 0.05 mg of receptor coated SPA beads, various concentrations of test peptide diluted in binding buffer, and 20 pM [₁₂₅I] IL-5 (Amersham). The plates were incubated at room temperature for 1 hour with agitation, then centrifuged for 5 min at 1500 rpm followed by scintillation counting on a Topcount instrument (Packard). Total binding was defined by the amount of [₁₂₅I] IL-5 bound in the absence of any competitor. Non-specific binding was defined by the amount of [₁₂₅I] IL-5 bound in the presence of 30 nM IL-5. Peptide binding data was analyzed to determine the peptide concentration required to reduce specific [₁₂₅I] IL-5 binding by 50% (IC₅₀). In each instance, the dimer has both intramolecular and intermolecular disulfide linkages as shown generically below: […]
A general note: Scintillation proximity formats need no separation of bound from free tracer.

Test [3] addresses T2, IL-5RaECD (the extracellular domain …). As to the kind of experiment: competition with [125I] IL-5 for binding to IL-5Ra ECD; peptide assayed immediately after dissolving. As for the experimental part: Binding affinities of synthetic peptides for IL-5Ra were measured in a competition binding assay using radio-iodinated IL-5. Immulon 4 (Dynatech) microtiter wells were coated with streptavidin (Sigma) by incubating 100 ul of a 50 ug/ml solution in PBS for 30 min. at 37. The wells were blocked with 200 ul of 1% BSA in PBS for 15 min. at 37, followed by 100 III of biotinylated monoclonal antibody, designated mAb 179, at 5 u. g/ml in PBS. Soluble IL-5Ra was then immobilized in the wells by incubating 100 µl of a solution of soluble receptor harvest diluted 1: 5000 in PBS/0.1% BSA for 1 hr. at 4. After washing away unbound receptor, 50 ul of various concentrations of test peptide diluted in PBS/0.1% BSA were added to the wells, followed by 50 µl of a fixed concentration of [₁₂₅I] IL-5 (Amersham). The binding reactions were incubated at 4 C for 2 hr, then washed with PBS to remove unbound [₁₂₅I] IL-5. Bound [₁₂₅I] IL-5 was determined by gamma counting.
Total binding was defined by the amount of [₁₂₅I] IL-5 bound in the absence of any competitor. Non-specific binding was defined by the amount of [₁₂₅I] IL-5 bound in the presence of 30 nM IL-5. Peptide binding data was analyzed to determine the peptide concentration required to reduce specific [₁₂₅I]

B1: dimer of (H)-EGYVCVEWARCPTCG-(NH2) (peptide)
peptide: H-EGYVCVEWARCPTCG-NH2
modifications: disulfide (positions not given here); also: dimer, intramolecular and intermolecular disulfide linkages, places not given here
In the case of B1, the “Microphysiometer pIC50 (block of TF-1 cell response to IL-5)” value (from here on “Microphysiometer pIC50”) in test [1] was 9.1 negative log of the molar IC50.

B2: dimer of (Ac)-EGYVCVEWARCPTCK-(NH2) (peptide)
peptide: Ac-EGYVCVEWARCPTCK-NH2
modifications: disulfide (positions not given here); also: dimer, intramolecular and intermolecular disulfides, places not given here
On to B2, for which the “Microphysiometer pIC50” value in test [1] is 8.4 negative log of the molar IC50.

B3: dimer of (H)-EGYVCVEWARCPTCR-(NH2) (peptide)
peptide: H-EGYVCVEWARCPTCR-NH2
modifications: disulfide (positions not given here); also: dimer, intramolecular and intermolecular disulfide linkages, places not given here
B3: the “Microphysiometer pIC50” value in test [1] was 9.1 negative log of the molar IC50. The “SPA pIC50” value in test [2] was 8.1 negative log of the molar IC50.

B4: dimer of (H)-GYVCVEWARCPTCR-(OH) (peptide)
peptide: H-GYVCVEWARCPTCR-OH
modifications: disulfide (positions not given here); also: dimer, intramolecular and intermolecular disulfide linkages, places not given here
Regarding B4, in test [1], the “Microphysiometer pIC50” value was 8.4 negative log of the molar IC50. Also, the “SPA pIC50” value in test [2] was 8.2 negative log of the molar IC50.

B5: dimer of (Ahx)-EGYVCVEWARCPTCR-(NH2) (peptide)
peptide: [Ahx]EGYVCVEWARCPTCR-NH2
modifications: disulfide (positions not given here); also: dimer, intramolecular and intermolecular disulfides, places not given here
Consider B5, for which the “Microphysiometer pIC50” value in test [1] was 9 negative log of the molar IC50.

B6: dimer of (Ac)-EGYVCVEWAACPTCR-(NH2) (peptide)
peptide: Ac-EGYVCVEWAACPTCR-NH2
modifications: disulfide (positions not given here); also: dimer, intramolecular and intermolecular disulfides, places not given here
As for B6, the “Microphysiometer pIC50” value in test [1] was 6.9 negative log of the molar IC50.

B7: dimer of (H)-EGYVCVEWARCPTCK-(OH) (peptide)
peptide: H-EGYVCVEWARCPTCK-OH
modifications: disulfide (positions not given here); also: dimer, intramolecular and intermolecular disulfide linkages, places not given here
As for B7, the “Microphysiometer pIC50” value in test [1] was 9.2 negative log of the molar IC50. The “SPA pIC50” value in test [2] is 8.7 negative log of the molar IC50.

B8: dimer of (H)-GYVCVEFARCPTCG-(NH2) (peptide)
peptide: H-GYVCVEFARCPTCG-NH2
modifications: disulfide (positions not given here); also: dimer, intramolecular and intermolecular disulfide linkages, places not given here
As to B8, in test [2], the “SPA pIC50” value is 6.1 negative log of the molar IC50.

B9: dimer of (Ac)-EGYVCVEWARCPTCR-(NH2) (peptide)
peptide: Ac-EGYVCVEWARCPTCR-NH2
modifications: disulfide (positions not given here); also: dimer, intramolecular and intermolecular disulfides, places not given here
Consider B9, for which, in test [1], the “Microphysiometer pIC50” value is 9.1 negative log of the molar IC50.

B10: dimer of (H)-EGYVCVEFARCPTCR-(NH2) (peptide)
peptide: H-EGYVCVEFARCPTCR-NH2
modifications: disulfide (positions not given here); also: dimer, intramolecular and intermolecular disulfides, places not given here
Regarding B10, the “SPA pIC50” value in test [2] is 6.4 negative log of the molar IC50.

B11: dimer of (H)-EGYVCVEFARCPTCG-(NH2) (peptide)
peptide: H-EGYVCVEFARCPTCG-NH2
modifications: disulfide (positions not given here); also: dimer, intramolecular and intermolecular disulfides, places not given here
As for B11, the “SPA pIC50” value in test [2] is 6.6 negative log of the molar IC50.

B12: AF17362 (three cysteine residues in the free sulfhydryl form) (peptide)
peptide: TGGGDGYVCVEWARCPTCK
modifications: three Cys in free sulfhydryl form
notes: T0005 prints 32-50
As for B12, the IC50 in test [3] is 0.12 µM.

B13: dimer of (H)-EGYVCVEWARCPTCR-(OH) (peptide)
peptide: H-EGYVCVEWARCPTCR-OH
modifications: disulfide (positions not given here); also: dimer, intramolecular and intermolecular disulfide linkages, places not given here
As to B13, the “Microphysiometer pIC50” value in test [1] is 9.6 negative log of the molar IC50. Further, the “SPA pIC50” value in test [2] is 8.4 negative log of the molar IC50.

B14: dimer of (H)-EGYVCVEFARCPTCR-(OH) (peptide)
peptide: H-EGYVCVEFARCPTCR-OH
modifications: disulfide (positions not given here); also: dimer, intramolecular and intermolecular disulfides, places not given here
For B14, in test [2], the “SPA pIC50” value is 6.8 negative log of the molar IC50.
